The supplement of paper PMC10724198
± gives the standard deviation of the averaged measurements.

Test system: Saccharomyces cerevisiae
Experiment: protein stability index of tFT-peptide fusion (C-terminal peptide) (PSI (0-1 scale)); higher = more stable (slower turnover)
Conditions: temperature: 30 C
Protocol: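 MPS profiling in S. cerevisiae of the yeast C-terminome library: the last 12 aa of each annotated ORF are fused to the C-terminus of a sfGFP-mCherry timer, after a GGGS linker. Cells are FACS-sorted into 8 mCherry/sfGFP bins and deep-sequenced. PSI runs from 0 (unstable) to 1 (stable); wild type and das1Δ backgrounds, two technical replicates each.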

[1] = genetic background: das1 deletion

Row | Sequence | protein stability index [1] | protein stability index (genetic background: wild type)
1 | PPASESNKGINE [YDR008C C-terminal 12 aa] | 0.694 ± 0.013 | 0.661 ± 0.032
2 | CSTERPKRARCD [YOR342C C-terminal 12 aa] | 0.708 ± 0.0099 | 0.695 ± 0.029
3 | ALGLAGVAMLFL [SED1 C-terminal 12 aa] | 0.694 ± 0.02 | 0.647 ± 0.0089
4 | EIAADDTKKQEK [SOK2 C-terminal 12 aa] | 0.672 ± 0.027 | 0.684 ± 0.074
5 | KTIDNLKALMKN [PFD1 C-terminal 12 aa] | 0.696 ± 0.0081 | 0.721 ± 0.019
6 | EECVKVQWESRT [TSR4 C-terminal 12 aa] | 0.681 ± 0.051 | 0.69407 ± 0.00052
7 | NNLNTNTSTTTQ [MIT1 C-terminal 12 aa] | 0.682 ± 0.011 | 0.68 ± 0.065
8 | KTVIENPLEMLL [LAT1 C-terminal 12 aa] | 0.6972 ± 0.002 | 0.694 ± 0.025
9 | FILELKNICKCT [MOH1 C-terminal 12 aa] | 0.703 ± 0.026 | 0.525 ± 0.046
10 | KKLAKSGIEFKW [NOP15 C-terminal 12 aa] | 0.704 ± 0.018 | 0.684 ± 0.063
11 | VRKDYIALINQY [ADI1 C-terminal 12 aa] | 0.6715 ± 0.0042 | 0.652 ± 0.01
12 | KEEEGSFNNVIG [PRE2 C-terminal 12 aa] | 0.702 ± 0.012 | 0.66 ± 0.014
13 | RVLNNLIVSHNK [MOT3 C-terminal 12 aa] | 0.7102 ± 0.003 | 0.735 ± 0.078
14 | TILHQQVNSKLH [YHR180W C-terminal 12 aa] | 0.7181 ± 0.00078 | 0.627 ± 0.02
15 | RRSFFSVFRSEK [AKL1 C-terminal 12 aa] | 0.68 ± 0.019 | 0.746 ± 0.049
16 | ANSLDAIFLKSK [YNL150W C-terminal 12 aa] | 0.6777 ± 0.0042 | 0.669 ± 0.021
17 | KVEFSKSETKTL [MSL1 C-terminal 12 aa] | 0.71 ± 0.018 | 0.6736 ± 0.0014
18 | SCAKDILGEENF [BRE4 C-terminal 12 aa] | 0.687 ± 0.0079 | 0.661 ± 0.04
19 | SLDKMAQQLGVE [YKR005C C-terminal 12 aa] | 0.698 ± 0.016 | 0.677 ± 0.036
20 | KEALLTRLEHMI [SWC7 C-terminal 12 aa] | 0.682 ± 0.015 | 0.624 ± 0.011
21 | LYEEHQQMLDKQ [IPI3 C-terminal 12 aa] | 0.7227 ± 0.0019 | 0.726 ± 0.088

Row | Sequence | protein stability index [1] | protein stability index (genetic background: wild type)
22 | EHTILSDSDETH [RIM15 C-terminal 12 aa] | 0.71 ± 0.012 | 0.717 ± 0.022
23 | LNEKESTKLFYR [ELP6 C-terminal 12 aa] | 0.6871 ± 0.002 | 0.701 ± 0.013
24 | RVSLEKEAKQHG [ERV2 C-terminal 12 aa] | 0.715 ± 0.025 | 0.673 ± 0.0072
25 | SIDKWFFISGSV [IPP1 C-terminal 12 aa] | 0.726 ± 0.013 | 0.709 ± 0.0086
26 | SGYDYFDVSVSG [YAT1 C-terminal 12 aa] | 0.71 ± 0.022 | 0.712 ± 0.015
27 | KTETLSVPRILT [YBR090C C-terminal 12 aa] | 0.689 ± 0.01 | 0.722 ± 0.059
28 | QALFVLYYLYSI [YDR406W-A C-terminal 12 aa] | 0.428 ± 0.018 | 0.445 ± 0.013
29 | KISFKWKKQRKR [UTP11 C-terminal 12 aa] | 0.71 ± 0.01 | 0.655 ± 0.015
30 | SAIYLLIFRSTR [YPR177C C-terminal 12 aa] | 0.56459 ± 0.00029 | 0.569 ± 0.018
31 | TSPKESFFKEVI [LPX2 C-terminal 12 aa] | 0.715 ± 0.03 | 0.711 ± 0.022
32 | ENNDNDDNDGLF [CTR9 C-terminal 12 aa] | 0.707 ± 0.037 | 0.701 ± 0.048
33 | KALRELQAEMGL [SNF7 C-terminal 12 aa] | 0.696 ± 0.0095 | 0.688 ± 0.025
34 | RKRKQSKSGLLL [NOP8 C-terminal 12 aa] | 0.723 ± 0.024 | 0.699 ± 0.01
35 | RLDKATKALEGF [NBA1 C-terminal 12 aa] | 0.6942 ± 0.0018 | 0.702 ± 0.033
36 | VPRFKDIFDDLS [DOA1 C-terminal 12 aa] | 0.7313 ± 0.0058 | 0.719 ± 0.0078
37 | EADFRKRFPSKV [PRK1 C-terminal 12 aa] | 0.694 ± 0.0081 | 0.669 ± 0.021
38 | MNEIDARIFEYK [SPO11 C-terminal 12 aa] | 0.764 ± 0.024 | 0.681 ± 0.013
39 | WLDKHTTTEAKP [YJU3 C-terminal 12 aa] | 0.7087 ± 0.0036 | 0.705 ± 0.0089
40 | NKAPSWLLTALE [OCA1 C-terminal 12 aa] | 0.6834 ± 0.0031 | 0.69 ± 0.027
41 | ATSLSPNKASAS [YJL026C-A C-terminal 12 aa] | 0.685 ± 0.015 | 0.6601 ± 0.0011
42 | EAGDSDILTTLA [RPL30 C-terminal 12 aa] | 0.706 ± 0.024 | 0.687 ± 0.0078

Row | Sequence | protein stability index [1] | protein stability index (genetic background: wild type)
43 | CIEIARHFVLKE [YEL009C-A C-terminal 12 aa] | 0.73 ± 0.014 | 0.708 ± 0.027
44 | EELQGNARALNN [SNN1 C-terminal 12 aa] | 0.6962 ± 0.0046 | 0.69 ± 0.019
45 | LEEELTKIGLLP [GRX8 C-terminal 12 aa] | 0.706 ± 0.018 | 0.698 ± 0.0098
46 | TLVFDVELLKVN [FPR1 C-terminal 12 aa] | 0.6084 ± 0.0029 | 0.251 ± 0.033
47 | IAAFVVAVLFAF [PRY3 C-terminal 12 aa] | 0.213 ± 0.012 | 0.205 ± 0.012
48 | TILLFYPPLLKR [YDR544C C-terminal 12 aa] | 0.627 ± 0.0074 | 0.6119 ± 0.0047
49 | LQSDKDLQSLLT [CUE1 C-terminal 12 aa] | 0.698 ± 0.0011 | 0.683 ± 0.011
50 | NVTGSANNGTHI [SVS1 C-terminal 12 aa] | 0.708 ± 0.032 | 0.671 ± 0.016
51 | SSEEGYYIAGSI [IRC23 C-terminal 12 aa] | 0.8201 ± 0.0072 | 0.81 ± 0.01
52 | LEDSTRVYSNLM [ARP1 C-terminal 12 aa] | 0.693 ± 0.007 | 0.6835 ± 0.0043
53 | HAYVIEKLPDVF [FCF1 C-terminal 12 aa] | 0.719 ± 0.0048 | 0.698 ± 0.016
54 | LLYCNIYVYYRF [KAR1 C-terminal 12 aa] | 0.15 ± 0.014 | 0.161 ± 0.0022
55 | SPKEEKRFKFKL [YGR127W C-terminal 12 aa] | 0.739 ± 0.046 | 0.801 ± 0.047
56 | LLQVYDRVKASM [TOP3 C-terminal 12 aa] | 0.67 ± 0.00086 | 0.5992 ± 0.0013
57 | AKNGDYVKIEQP [YMR315W C-terminal 12 aa] | 0.6792 ± 0.0039 | 0.729 ± 0.019
58 | EKHSFSTTQQVV [NRT1 C-terminal 12 aa] | 0.666 ± 0.019 | 0.664 ± 0.028
59 | NTQVDDETKKNN [YDC1 C-terminal 12 aa] | 0.7078 ± 0.0056 | 0.7367 ± 0.0051
60 | RELREHTKLLHS [YIL082W-A C-terminal 12 aa] | 0.6879 ± 0.0029 | 0.597 ± 0.021
61 | EAQLSSNDEPLP [YCR102W-A C-terminal 12 aa] | 0.6904 ± 0.004 | 0.721 ± 0.089
62 | GGLHFHGESFAL [FRE8 C-terminal 12 aa] | 0.699 ± 0.0096 | 0.712 ± 0.036
63 | MVEAAALKRNKK [ARO10 C-terminal 12 aa] | 0.686 ± 0.049 | 0.7161 ± 0.0026

Row | Sequence | protein stability index [1] | protein stability index (genetic background: wild type)
64 | WEAYLRRCGQQN [URA3 C-terminal 12 aa] | 0.697 ± 0.032 | 0.658 ± 0.018
65 | QAIEDKLNKMSR [BIL1 C-terminal 12 aa] | 0.686 ± 0.026 | 0.683 ± 0.018
66 | CADCGTILNNFR [DGR2 C-terminal 12 aa] | 0.731 ± 0.017 | 0.748 ± 0.045
67 | YAKFGDNINLER [GIM3 C-terminal 12 aa] | 0.70175 ± 0.00021 | 0.698 ± 0.031
68 | GLGDFGDRYYCV [FUR1 C-terminal 12 aa] | 0.7105 ± 0.0059 | 0.697 ± 0.007
69 | NTAKATYDLYTN [GPI8 C-terminal 12 aa] | 0.686 ± 0.012 | 0.6703 ± 0.0046
70 | QSPLMDMLAPQL [TOM6 C-terminal 12 aa] | 0.706 ± 0.015 | 0.7117 ± 0.00029
71 | LLCSDLVNGLMQ [SEC21 C-terminal 12 aa] | 0.706 ± 0.029 | 0.707 ± 0.0075
72 | TLKSTSSTNSPD [SMP1 C-terminal 12 aa] | 0.703 ± 0.011 | 0.6844 ± 0.006
73 | VRYVIIHRHTST [RMD8 C-terminal 12 aa] | 0.648 ± 0.0073 | 0.599 ± 0.0066
74 | GINLNISYSSGK [ULI1 C-terminal 12 aa] | 0.706 ± 0.012 | 0.681 ± 0.0044
75 | KRQGRTLYGFGG [YBR009C; YNL030W C-terminal 12 aa] | 0.7013 ± 0.0062 | 0.693 ± 0.021
76 | RFAKGGKFVEVD [ATP18 C-terminal 12 aa] | 0.6904 ± 0.001 | 0.6675 ± 0.0047
77 | FFLRSAAVYQPF [YPR197C C-terminal 12 aa] | 0.6949 ± 0.003 | 0.6815 ± 0.0047
78 | QSTAVFFTNKTD [YER076W-A C-terminal 12 aa] | 0.707 ± 0.018 | 0.684 ± 0.046
79 | DEDEFENQRQQF [YIL055C C-terminal 12 aa] | 0.71 ± 0.0099 | 0.709 ± 0.076
80 | FFNISVSTKISF [YER175W-A C-terminal 12 aa] | 0.6797 ± 0.00033 | 0.659 ± 0.04
81 | VQCVCFNVEMRL [YIL046W-A C-terminal 12 aa] | 0.662 ± 0.015 | 0.676 ± 0.091
82 | LPKIIKKHQRLS [MRH4 C-terminal 12 aa] | 0.724 ± 0.056 | 0.191 ± 0.0044
